In patent US20120214748A1 (published 2012):
Bridge positions count the residues as written; N and C are the ends. Ends that are not written are not given here.

T1: MASP-1 CCP1-CCP2-SP (human, UniProt P48740 298-699, limits assumed)
T1 construct: domain: CCP1-CCP2-SP; Recombinant fragment
T1 sequence (looked up): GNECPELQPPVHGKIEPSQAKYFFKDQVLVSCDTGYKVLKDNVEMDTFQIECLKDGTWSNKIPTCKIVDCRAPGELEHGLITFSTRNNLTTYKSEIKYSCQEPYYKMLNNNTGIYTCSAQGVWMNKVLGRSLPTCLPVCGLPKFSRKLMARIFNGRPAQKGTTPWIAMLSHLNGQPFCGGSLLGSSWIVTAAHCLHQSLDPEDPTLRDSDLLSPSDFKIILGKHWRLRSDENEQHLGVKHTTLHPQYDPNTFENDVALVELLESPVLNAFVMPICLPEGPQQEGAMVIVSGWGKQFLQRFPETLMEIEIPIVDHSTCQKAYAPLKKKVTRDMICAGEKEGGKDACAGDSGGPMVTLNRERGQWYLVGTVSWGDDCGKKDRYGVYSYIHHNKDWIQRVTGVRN


Experiments:
[1] = target: T1, MASP-1 CCP1-CCP2-SP; assay: preliminary experiments, method not described
[2] = target: T2, MASP-2 CCP1-CCP2-SP (human, UniProt O00187 298-686, limits assumed); assay: preliminary experiments, method not described
T2 construct: domain: CCP1-CCP2-SP; Recombinant fragment

[3] = target: Trypsin; assay: enzyme inhibition, Z-L-Lys-SBzl substrate, tight-binding fit
[4] = target: T1, MASP-1 CCP1-CCP2-SP; assay: as above
[5] = target: T2, MASP-2 CCP1-CCP2-SP; assay: as above
[6] = target: Thrombin; assay: enzyme inhibition, Z-Gly-Pro-Arg-pNa substrate, tight-binding fit

T2 sequence (O00187 298-686 limits assumed): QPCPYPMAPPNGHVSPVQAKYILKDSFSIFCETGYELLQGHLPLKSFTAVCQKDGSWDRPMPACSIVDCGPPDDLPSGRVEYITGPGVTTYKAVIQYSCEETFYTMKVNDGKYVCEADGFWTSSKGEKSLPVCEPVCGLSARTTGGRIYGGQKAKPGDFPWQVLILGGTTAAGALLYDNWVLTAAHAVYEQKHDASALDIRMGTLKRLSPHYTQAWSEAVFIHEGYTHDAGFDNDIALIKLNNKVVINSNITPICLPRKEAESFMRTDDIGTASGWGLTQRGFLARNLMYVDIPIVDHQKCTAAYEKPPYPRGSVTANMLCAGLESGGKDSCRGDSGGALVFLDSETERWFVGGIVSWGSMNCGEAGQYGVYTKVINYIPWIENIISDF
Chain of Trypsin (P00760 24-246): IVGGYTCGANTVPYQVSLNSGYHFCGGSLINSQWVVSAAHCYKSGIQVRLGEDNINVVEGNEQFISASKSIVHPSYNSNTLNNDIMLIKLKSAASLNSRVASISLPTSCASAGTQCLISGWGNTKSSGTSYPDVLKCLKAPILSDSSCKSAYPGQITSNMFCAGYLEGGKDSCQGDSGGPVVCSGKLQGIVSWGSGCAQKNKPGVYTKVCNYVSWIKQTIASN

Binder | binding result [1] | binding result [2] | Ki [3] [nM] | Ki [4] [nM] | Ki [5] [nM] | Ki [6] [nM]
EVTCEPGTTFKDKCNTCRCGSDGKSAACTLKACPQ (other, UniProt O46162 57-91, looked up) [Schistocerca Gregaria Chymotrypsin Inhibitor (SGCI)] | no binding | no binding |  |  |  | 
GICSRSLPPICIPD (disulfide 3-11 (inferred), Synthetic consensus peptide of the non-selective group, linear form; also called "NS" peptide; non-selective peptide) [M2-4G] |  |  | 260 | 65 | 1030 | 10000
cyclo(GICSRSLPPICIPD) (disulfide 3-11 (inferred), Backbone-cyclised form of M2-4G) [M2-4G cyclic] |  |  | 350 | 275 | 750 | 
GVCSRSLPPICWPD (disulfide 3-11 (inferred), The parent M1-3E was not tested as a synthetic peptide) [M1-3E-Y12W] |  |  | 170 | 140 | 5000 | 
GMCSRSYPPVCIPD (disulfide 3-11 (inferred), Point mutant of M2-6E) [M2-6E-Y2M] |  |  | 4000 | 4000 | 1500 | 
GYCSRSIPPVCIPD (disulfide 3-11 (inferred), Point mutant of M2-6E) [M2-6E-Y7I] |  |  | 160 |  | 7000 | 
GWCSRSYPPVCIPD (disulfide 3-11 (inferred), Point mutant of M2-6E) [M2-6E-Y2W] |  |  | 1700 |  | 580 | 
